T1: Recombinant Human IL-17 (human, UniProt Q16552 20-155, limits assumed)
T1 sequence (looked up): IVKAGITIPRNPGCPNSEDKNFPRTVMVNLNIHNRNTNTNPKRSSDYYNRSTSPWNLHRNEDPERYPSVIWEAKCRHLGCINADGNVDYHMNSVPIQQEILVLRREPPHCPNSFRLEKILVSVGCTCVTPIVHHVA


Columns and labels:
[1] = target: T2, Recombinant Human IL-13 (human, UniProt P35225 35-146, limits assumed); assay: cell-based or functional assay
[2] = target: T1, Recombinant Human IL-17; assay: cell-based or functional assay
[3] = target: T1, Recombinant Human IL-17; assay: SPR (Biacore)
Description: (§1) The BIACORE assay (Biacore, Inc, Piscataway, N.J.) determined the affinity of antibodies or DVD-Ig with kinetic measurements of on-rate and off-rate constants. Binding of antibodies or DVD-Ig proteins to a target antigen (for example, a purified recombinant target antigen) was determined by surface plasmon resonance-based measurements with a Biacore®1000 or 3000 instrument (Biacore® AB, Uppsala, Sweden) using running HBS-EP (10 mM HEPES [pH 7.4], 150 mM NaCl, 3 mM EDTA, and 0.005% surfactant P20) at 25° C. All chemicals were obtained from Biacore® AB (Uppsala, Sweden) or otherwise from a different source as described in the text. For example, approximately 5000 RU of goat anti-mouse IgG, (Fcγ), fragment specific polyclonal antibody (Pierce Biotechnology Inc, Rockford, Ill.) diluted in 10 mM sodium acetate (pH 4.5) was directly immobilized across a CM5 research grade biosensor chip using a standard amine coupling kit according to manufacturer's instructions and procedures at 25 μg/ml. Unreacted moieties on the biosensor surface were blocked with ethanolamine. Modified carboxymethyl dextran surface in flowcell 2 and 4 was used as a reaction surface. Unmodified carboxymethyl dextran without goat anti-mouse IgG in flow cell 1 and 3 was used as the reference surface. For kinetic analysis, rate equations derived from the 1:1 Langmuir binding model were fitted simultaneously to association and dissociation phases of all eight injections (using global fit analysis) with the use of Biaevaluation 4.0.1 software. Purified antibodies or DVD-Ig proteins were diluted in HEPES-buffered saline for capture across goat anti-mouse IgG specific reaction surfaces. Antibodies or DVD-Ig proteins to be captured as a ligand (25 μg/ml) were injected over reaction matrices at a flow rate of 5 μl/minute. The association and dissociation rate constants, kₒₙ (M⁻¹s⁻¹) and koff (s⁻¹) were determined under a continuous flow rate of 25 μl/minute. Rate constants were derived by making kinetic binding measurements at different antigen concentrations ranging from 10-200 nM. The equilibrium dissociation constant (M) of the reaction between antibodies or DVD-Ig proteins and the target antigen was then calculated from the kinetic rate constants by the following formula: KD=koff/kₒₙ. Binding was recorded as a function of time and kinetic rate constants were calculated.

[4] = target: T2, Recombinant Human IL-13; assay: SPR (Biacore)
Description: as §1

T2 sequence (P35225 35-146 limits assumed): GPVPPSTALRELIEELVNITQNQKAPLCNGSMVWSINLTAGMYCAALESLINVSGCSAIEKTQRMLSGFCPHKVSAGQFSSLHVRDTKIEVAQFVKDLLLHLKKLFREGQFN

Row | Binder | N-Terminal VD IL13 Neutralization Assay IC50 [1] [pM] | C-Terminal VD IL17 Neutralization Assay IC50 [2] [pM] | Kd [3] [pM] | koff [3] [s⁻¹] | kon [3] [M⁻¹ s⁻¹] | IL17 Neutralization Assay IC50 (IL-6, HS27 cells) [2] [pM] | Kd [4] [pM] | koff [4] [s⁻¹] | kon [4] [M⁻¹ s⁻¹] | IL13 Neutralization Assay IC50 (TARC, A549 cells) [1] [pM]
1 | DVD2162 (bispecific antibody) VH: EVTLRESGPGLVKPTQTLTLTCTLYGFSLSTSDMGVDWIRQPPGKGLEWLAHIWWDDVKRYNPALKSRLTISKDTSKNQVVLKLTSVDPVDTATYYCARTVSSGYIYYAMDYWGQGTLVTVSSASTKGPEVQLVQSGAEVKKPGESVKISCKASGGSFRSYGISWVRQAPGQGLEWMGGITHFFGITDYAQKFQGRVTITADESTTTAYMELSGLTSDDTAVYYCAREPNDFWNGYYDTHDFDSWGQGTTVTVSS VL: DIQMTQSPSSLSASVGDRVTISCRASQDIRNYLNWYQQKPGKAPKLLIFYTSKLHSGVPSRFSGSGSGTDYTLTISSLQPEDIATYYCQQGLTPPLTFGGGTKVEIKRTVAAPSVFIFPPEIVLTQSPDFQSVTPKEKVTITCRASQNIGSELHWYQQKPDQSPKLLIKYASHSISGVPSRFSGSGSGTDFTLTINGLEAEDAATYYCHQSDTLPHTFGQGTKVDIKR | 126 | 21.3 |  |  |  |  |  |  |  | 
2 | AB273 (antibody, V domains shown, parent antibody; also called AB273VH) VH: EVQLVQSGAEVKKPGSSVKVSCKASGYTFTDYEIHWVRQAPGQGLEWMGVNDPESGGTFYNQKFDGRVTLTADESTSTAYMELSSLRSEDTAVYYCTRYSKWDSFDGMDYWGQGTTVTVSS VL: DIQMTQSPSSLSASVGDRVTITCRASSGIISYIDWFQQKPGKAPKRLIYATFDLASGVPSRFSGSGSGTDYTLTISSLQPEDFATYYCRQVGSYPETFGQGTKLEIKR |  |  | < 0.5 | < 1e-06 | 2e+06 | 19.8 |  |  |  | 
3 | AB274 (antibody, V domains shown, parent antibody; also called AB274VH) VH: EVQLVQSGAEVKKPGSSVKVSCKASGGSFGGYGIGWVRQAPGQGLEWMGGITPFFGFADYAQKFQGRVTITADESTTTAYMELSGLTSDDTAVYYCARDPNEFWNGYYSTHDFDSWGQGTTVTVSS VL: EIVLTQSPDFQSVTPKEKVTITCRASQDIGSELHWYQQKPDQPPKLLIKYASHSTSGVPSRFSGSGSGTDFTLTINGLEAEDAGTYYCHQTDSLPYTFGPGTKVDIKR |  |  | 7.4 | 8.2e-06 | 1.1e+06 | 3 |  |  |  | 
4 | AB275 (antibody, V domains shown, parent antibody; also called AB275VH) VH: EVQLVQSGAEVKKPGESVKISCKASGGSFRSYGISWVRQAPGQGLEWMGGITHFFGITDYAQKFQGRVTITADESTTTAYMELSGLTSDDTAVYYCAREPNDFWNGYYDTHDFDSWGQGTTVTVSS VL: EIVLTQSPDFQSVTPKEKVTITCRASQNIGSELHWYQQKPDQSPKLLIKYASHSISGVPSRFSGSGSGTDFTLTINGLEAEDAATYYCHQSDTLPHTFGQGTKVDIKR |  |  | 34 | 6.5e-05 | 1.9e+06 | 5.2 |  |  |  | 
5 | AB397 (antibody, V domains shown, parent antibody; also called AB397VH) VH: EVTLRESGPGLVKPTQTLTLTCTLYGFSLSTSDMGVDWIRQPPGKGLEWLAHIWWDDVKRYNPALKSRLTISKDTSKNQVVLKLTSVDPVDTATYYCARTVSSGYIYYAMDYWGQGTLVTVSS VL: DIQMTQSPSSLSASVGDRVTISCRASQDIRNYLNWYQQKPGKAPKLLIFYTSKLHSGVPSRFSGSGSGTDYTLTISSLQPEDIATYYCQQGLTPPLTFGGGTKVEIKR |  |  |  |  |  |  | 130 | 0.00012 | 920000 | 33
6 | AB399 (antibody, V domains shown, parent antibody; also called AB399VH) VH: EVQLVQSGAEVKKPGASVKVSCKASGYTFTSYWMHWVRQAPGQGLEWIGNINPKGGSNIYNEKFQGRVTMTRDTSISTAYMELSRLRSDDTAVYYCARLDYFGDSFDLWGQGTTVTVSS VL: DIQMTQSPSSLSASVGDRVTITCRASQGIRNYLNWYQQKPGKAPKLLIYYASNLEVGVPSRFSGSGSGTDYTLTISSLQPEDFATYYCQQDNRFPYTFGGGTKVEIKR |  |  |  |  |  |  | 19 | 6.4e-05 | 3.4e+06 | 43
7 | DVD2154 (bispecific antibody) VH: EVTLRESGPGLVKPTQTLTLTCTLYGFSLSTSDMGVDWIRQPPGKGLEWLAHIWWDDVKRYNPALKSRLTISKDTSKNQVVLKLTSVDPVDTATYYCARTVSSGYIYYAMDYWGQGTLVTVSSASTKGPEVQLVQSGAEVKKPGSSVKVSCKASGGSFGGYGIGWVRQAPGQGLEWMGGITPFFGFADYAQKFQGRVTITADESTTTAYMELSGLTSDDTAVYYCARDPNEFWNGYYSTHDFDSWGQGTTVTVSS VL: DIQMTQSPSSLSASVGDRVTISCRASQDIRNYLNWYQQKPGKAPKLLIFYTSKLHSGVPSRFSGSGSGTDYTLTISSLQPEDIATYYCQQGLTPPLTFGGGTKVEIKRTVAAPEIVLTQSPDFQSVTPKEKVTITCRASQDIGSELHWYQQKPDQPPKLLIKYASHSTSGVPSRFSGSGSGTDFTLTINGLEAEDAGTYYCHQTDSLPYTFGPGTKVDIKR | 430 | 351 |  |  |  |  |  |  |  | 
8 | DVD2156 (bispecific antibody) VH: EVTLRESGPGLVKPTQTLTLTCTLYGFSLSTSDMGVDWIRQPPGKGLEWLAHIWWDDVKRYNPALKSRLTISKDTSKNQVVLKLTSVDPVDTATYYCARTVSSGYIYYAMDYWGQGTLVTVSSASTKGPEVQLVQSGAEVKKPGSSVKVSCKASGGSFGGYGIGWVRQAPGQGLEWMGGITPFFGFADYAQKFQGRVTITADESTTTAYMELSGLTSDDTAVYYCARDPNEFWNGYYSTHDFDSWGQGTTVTVSS VL: DIQMTQSPSSLSASVGDRVTISCRASQDIRNYLNWYQQKPGKAPKLLIFYTSKLHSGVPSRFSGSGSGTDYTLTISSLQPEDIATYYCQQGLTPPLTFGGGTKVEIKRTVAAPSVFIFPPEIVLTQSPDFQSVTPKEKVTITCRASQDIGSELHWYQQKPDQPPKLLIKYASHSTSGVPSRFSGSGSGTDFTLTINGLEAEDAGTYYCHQTDSLPYTFGPGTKVDIKR | 129 | 15.5 |  |  |  |  |  |  |  | 
9 | DVD2160 (bispecific antibody) VH: EVTLRESGPGLVKPTQTLTLTCTLYGFSLSTSDMGVDWIRQPPGKGLEWLAHIWWDDVKRYNPALKSRLTISKDTSKNQVVLKLTSVDPVDTATYYCARTVSSGYIYYAMDYWGQGTLVTVSSASTKGPEVQLVQSGAEVKKPGESVKISCKASGGSFRSYGISWVRQAPGQGLEWMGGITHFFGITDYAQKFQGRVTITADESTTTAYMELSGLTSDDTAVYYCAREPNDFWNGYYDTHDFDSWGQGTTVTVSS VL: DIQMTQSPSSLSASVGDRVTISCRASQDIRNYLNWYQQKPGKAPKLLIFYTSKLHSGVPSRFSGSGSGTDYTLTISSLQPEDIATYYCQQGLTPPLTFGGGTKVEIKRTVAAPEIVLTQSPDFQSVTPKEKVTITCRASQNIGSELHWYQQKPDQSPKLLIKYASHSISGVPSRFSGSGSGTDFTLTINGLEAEDAATYYCHQSDTLPHTFGQGTKVDIKR | 178 | 703 |  |  |  |  |  |  |  | 
10 | AB398 (antibody, V domains shown, parent antibody; also called AB398VH) VH: EVQLVQSGAEVKKPGASVKVSCKASGYTFTTYGVSWVRQAPGQGLEWMGEIYPGNYNTYYNEKFRGRVTMTTDTSTSTAYMELRSLRSDDTAVYYCARWRTSYFSDYGYFDYWGQGTTVTVSS VL: DVVMTQSPLSLPVTLGQPASISCRSSQSLVHSHGNTYLHWYQQRPGQSPRLLIYTVSNRFSGVPDRFSGSGSGTDFTLKISRVEAEDVGVYYCSQSTHVPYTFGGGTKVEIKR |  |  |  |  |  |  | 45 | 2.8e-05 | 630000 | 82
